Non-standard residues stand in square brackets, D forms with d. No end group written: not given here. allyl‑C = allyl-modified terminal Cys; allyl‑K = allyl-modified terminal Lys
Molecular target: T1, CD59 (Homo sapiens, UniProt P13987)
T1 construct: human erythrocyte membrane glycoprotein CD59 were purified; from tissue; host or cells: human erythrocyte membranes (CD59); synthetic peptide custom ordered from Quality Controlled Biochemicals
T1 sequence (P13987 26-102): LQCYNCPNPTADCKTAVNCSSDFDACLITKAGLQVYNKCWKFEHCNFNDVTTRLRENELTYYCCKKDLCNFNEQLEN
Assay: CD59 binding to hu C9 peptide 359–384, microtiter plate assay with biotin-CD59
Conditions: microplate; corrected for nonspecific binding with 20-fold excess unlabeled CD59
Method: Biotin-CD59—CD59 was biotinylated by incubation (1 h, room temperature) with a 20-fold molar excess of NHS-LC-biotin in 10 mM MOPS, 0.1% Nonidet P-40, pH 9.0 followed by exhaustive dialysis against charcoal, as described by Chang, et al. J. Biol. Chem. 269, 26424–26430 (1994).
CD59 binding to hu C9 peptide 359–384—The specific binding of CD59 to hu C9-derived peptide 359–384 was measured by microtiter plate assay with biotin-CD59, according to modification of published methods of Chang, et al. (1994) and Husler, et al. (1995). Briefly, the BSA-peptide conjugate was adsorbed to 96 well polyvinyl microplates by overnight coating at 5 μg/ml in 0.1 M sodium bicarbonate, pH 8.5. After blocking with 1% (w/v) BSA, wells were washed and incubated (4 hrs., 37° C.) with between 0.5 and 1 μg/ml biotin-CD59. After washing, the bound biotin-CD59 was detected with Vectastain (Vector Labs, Burlingame, Calif.), developed by addition of p-nitrophenyl phosphate (2 mg/ml) and optical density recorded at 405 nm (VMaxMicroplate Reader, Molecular Devices, Inc.). In all experiments, correction was made for background adsorption of biotin-CD59 to BSA-coated wells (no peptide) and for nonspecific binding of biotin-CD59 to peptide, determined in the presence of a 20-fold excess of unlabeled CD59. […]

Question: “[allyl-K]-CLGYHLDVSLAFSEISVGAEFNKDD-[allyl-C] ([allyl‑K]CLGYHLDVSLAFSEISVGAEFNKDD[allyl‑C]; not fully specified; printed as [allyl-K]-CLGYHLDVSLAFSEISVGAEFNKDD-[allyl-C]) [C9 peptide 359–384]” was tested. Which “specific binding of biotin-CD59 to the BSA-coupled peptide” value did it give?
Answer: Its value is “specifically bound”.

— US7166568B1, “Compositions and methods to inhibit formation of the C5b-9 complex of complement” (Oklahoma Medical Research Foundation, priority 1998, dated 2007)
